Source: patent US20150344570A1 (published 2015)

B1: GpH7-B3 variant Y296_10E/GpL16-k0 (antibody, human IgG1, kappa)
heavy: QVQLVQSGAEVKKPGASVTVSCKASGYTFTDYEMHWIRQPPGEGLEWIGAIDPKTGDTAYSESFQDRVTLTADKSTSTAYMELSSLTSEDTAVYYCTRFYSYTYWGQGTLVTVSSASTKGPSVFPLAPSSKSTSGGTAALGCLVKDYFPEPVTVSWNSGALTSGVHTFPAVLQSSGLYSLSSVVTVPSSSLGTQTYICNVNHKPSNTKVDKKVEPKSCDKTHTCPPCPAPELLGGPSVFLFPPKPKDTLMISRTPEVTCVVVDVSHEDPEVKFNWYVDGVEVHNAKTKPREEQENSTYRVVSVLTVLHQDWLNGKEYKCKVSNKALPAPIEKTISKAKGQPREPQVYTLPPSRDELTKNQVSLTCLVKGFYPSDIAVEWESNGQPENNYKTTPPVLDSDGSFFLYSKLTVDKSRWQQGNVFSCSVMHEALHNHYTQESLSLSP
light: DIVMTQSPLSLPVTPGEPASISCQASESLVHSNRNTYLHWYLQKPGQSPQLLIYKVSNRFSGVPDRFSGSGSGTDFTLKISRVEAEDVGVYYCSQNTHVPPTFGQGTKVEIERTVAAPSVFIFPPSDEQLKSGTASVVCLLNNFYPREAKVQWKVDNALQSGNSQESVTEQDSKDSTYSLSSTLTLSKADYEKHKVYACEVTHQGLSSPVTKSFNRGEC
notes: also called Ho Ab
B2: GpH7-B3 variant Y296_13S/GpL16-k0 (antibody, human IgG1, kappa)
heavy: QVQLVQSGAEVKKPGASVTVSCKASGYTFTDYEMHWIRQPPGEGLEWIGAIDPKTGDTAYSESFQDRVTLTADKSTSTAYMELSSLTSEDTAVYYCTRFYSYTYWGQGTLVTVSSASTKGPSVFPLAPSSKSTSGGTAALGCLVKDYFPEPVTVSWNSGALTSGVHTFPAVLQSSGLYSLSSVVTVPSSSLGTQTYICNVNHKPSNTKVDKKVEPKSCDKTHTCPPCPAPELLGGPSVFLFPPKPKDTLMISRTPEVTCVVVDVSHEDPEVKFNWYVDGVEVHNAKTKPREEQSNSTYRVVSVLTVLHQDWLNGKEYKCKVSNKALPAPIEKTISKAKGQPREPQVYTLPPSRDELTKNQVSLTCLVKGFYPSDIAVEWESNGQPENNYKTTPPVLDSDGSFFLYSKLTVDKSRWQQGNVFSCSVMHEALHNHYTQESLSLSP
light: B1 light
notes: also called Ho Ab
B3: GpH7-B3 variant Y296_14T/GpL16-k0 (antibody, human IgG1, kappa)
heavy: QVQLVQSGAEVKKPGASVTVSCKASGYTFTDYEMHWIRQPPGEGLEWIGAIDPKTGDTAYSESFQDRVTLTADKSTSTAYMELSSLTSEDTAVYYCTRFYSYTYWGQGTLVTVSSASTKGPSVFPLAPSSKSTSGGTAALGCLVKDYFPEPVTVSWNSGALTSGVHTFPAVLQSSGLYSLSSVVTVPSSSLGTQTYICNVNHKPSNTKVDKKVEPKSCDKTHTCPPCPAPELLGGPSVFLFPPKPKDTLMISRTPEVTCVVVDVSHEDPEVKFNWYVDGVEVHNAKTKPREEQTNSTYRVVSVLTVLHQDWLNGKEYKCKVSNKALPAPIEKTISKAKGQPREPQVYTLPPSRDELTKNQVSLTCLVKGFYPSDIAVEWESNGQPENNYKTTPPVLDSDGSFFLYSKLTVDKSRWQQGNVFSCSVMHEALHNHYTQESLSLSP
light: B1 light
notes: also called Ho Ab
B4: GpH7-B3 variant Y296_16H/GpL16-k0 (antibody, human IgG1, kappa)
heavy: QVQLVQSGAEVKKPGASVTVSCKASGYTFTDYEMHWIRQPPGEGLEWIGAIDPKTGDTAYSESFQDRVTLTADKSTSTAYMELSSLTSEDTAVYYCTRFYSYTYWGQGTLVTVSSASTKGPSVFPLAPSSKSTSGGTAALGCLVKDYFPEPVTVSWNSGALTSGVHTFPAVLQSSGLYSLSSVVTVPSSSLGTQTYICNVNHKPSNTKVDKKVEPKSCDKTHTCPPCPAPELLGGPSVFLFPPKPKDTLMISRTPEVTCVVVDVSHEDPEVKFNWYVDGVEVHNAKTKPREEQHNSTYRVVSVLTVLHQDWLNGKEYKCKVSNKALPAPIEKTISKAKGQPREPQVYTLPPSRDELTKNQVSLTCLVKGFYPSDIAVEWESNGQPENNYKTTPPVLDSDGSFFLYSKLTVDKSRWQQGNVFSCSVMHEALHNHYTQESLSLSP
light: B1 light
notes: also called Ho Ab
B5: GpH7-B3 variant Y296_18N/GpL16-k0 (antibody, human IgG1, kappa)
heavy: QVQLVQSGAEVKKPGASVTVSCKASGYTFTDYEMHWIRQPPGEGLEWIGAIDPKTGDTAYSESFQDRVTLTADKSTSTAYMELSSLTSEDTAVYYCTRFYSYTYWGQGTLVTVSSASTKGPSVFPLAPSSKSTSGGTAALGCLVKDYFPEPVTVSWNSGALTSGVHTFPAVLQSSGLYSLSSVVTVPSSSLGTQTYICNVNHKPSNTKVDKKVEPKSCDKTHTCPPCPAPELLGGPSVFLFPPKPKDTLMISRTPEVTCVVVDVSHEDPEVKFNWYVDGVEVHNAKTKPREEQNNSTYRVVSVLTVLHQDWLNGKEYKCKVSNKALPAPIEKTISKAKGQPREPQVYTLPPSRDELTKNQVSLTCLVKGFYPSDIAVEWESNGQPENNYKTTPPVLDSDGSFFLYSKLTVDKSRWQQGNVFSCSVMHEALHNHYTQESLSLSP
light: B1 light
notes: also called Ho Ab
B6: GpH7-B3 variant Y296_19Q/GpL16-k0 (antibody, human IgG1, kappa)
heavy: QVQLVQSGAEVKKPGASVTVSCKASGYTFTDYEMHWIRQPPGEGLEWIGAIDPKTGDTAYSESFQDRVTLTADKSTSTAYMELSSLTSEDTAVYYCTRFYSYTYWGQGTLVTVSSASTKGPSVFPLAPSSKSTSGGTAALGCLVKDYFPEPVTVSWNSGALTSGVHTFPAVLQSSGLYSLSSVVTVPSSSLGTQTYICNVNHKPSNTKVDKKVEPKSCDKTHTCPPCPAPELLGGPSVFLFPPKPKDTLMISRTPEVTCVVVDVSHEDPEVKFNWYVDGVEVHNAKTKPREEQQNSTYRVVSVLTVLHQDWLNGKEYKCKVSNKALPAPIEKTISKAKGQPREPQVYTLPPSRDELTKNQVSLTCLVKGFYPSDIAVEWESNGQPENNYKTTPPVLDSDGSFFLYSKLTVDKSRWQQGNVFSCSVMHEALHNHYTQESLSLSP
light: B1 light
notes: also called Ho Ab
B7: GpH7-B3 variant Y296_20W/GpL16-k0 (antibody, human IgG1, kappa)
heavy: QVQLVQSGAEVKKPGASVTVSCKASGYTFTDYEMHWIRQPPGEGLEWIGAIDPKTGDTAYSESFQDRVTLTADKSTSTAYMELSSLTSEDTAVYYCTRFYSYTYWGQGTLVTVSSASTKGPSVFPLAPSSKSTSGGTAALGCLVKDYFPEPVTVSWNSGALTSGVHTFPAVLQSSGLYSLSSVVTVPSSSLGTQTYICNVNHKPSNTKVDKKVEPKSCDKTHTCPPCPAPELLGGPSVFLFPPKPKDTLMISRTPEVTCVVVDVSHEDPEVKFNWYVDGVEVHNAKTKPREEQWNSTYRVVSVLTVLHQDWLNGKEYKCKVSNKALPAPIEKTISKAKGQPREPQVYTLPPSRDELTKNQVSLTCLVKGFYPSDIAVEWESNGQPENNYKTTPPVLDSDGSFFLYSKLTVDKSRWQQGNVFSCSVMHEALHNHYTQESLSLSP
light: B1 light
notes: also called Ho Ab
B8: GpH7-B3 variant Y300_18N/GpL16-k0 (antibody, human IgG1, kappa)
heavy: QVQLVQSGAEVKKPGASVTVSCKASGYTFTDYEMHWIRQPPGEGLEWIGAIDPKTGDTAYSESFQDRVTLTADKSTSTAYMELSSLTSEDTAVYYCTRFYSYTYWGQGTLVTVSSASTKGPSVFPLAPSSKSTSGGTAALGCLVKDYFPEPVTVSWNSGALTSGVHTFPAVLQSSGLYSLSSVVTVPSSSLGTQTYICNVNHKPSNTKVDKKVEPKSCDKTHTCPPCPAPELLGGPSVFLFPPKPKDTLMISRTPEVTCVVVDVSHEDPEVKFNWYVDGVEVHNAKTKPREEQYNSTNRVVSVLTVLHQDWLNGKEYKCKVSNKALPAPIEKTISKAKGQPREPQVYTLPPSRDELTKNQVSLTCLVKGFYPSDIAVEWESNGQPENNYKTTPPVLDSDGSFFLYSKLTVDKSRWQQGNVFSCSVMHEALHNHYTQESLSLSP
light: B1 light
notes: also called Ho Ab
B9: GpH7-A5/GpH7-B3 variant S337_02A/GpL16-k0 (antibody, human IgG1, kappa)
heavy 1: not shown
heavy 2: not shown
light: B1 light
notes: also called He Ab
B10: GpH7-A5/GpH7-B3 variant P331_06M/GpL16-k0 (antibody, human IgG1, kappa)
heavy 1: not shown
heavy 2: not shown
light: B1 light
notes: also called He Ab
B11: GpH7-A5/GpH7-B3 variant P331_07I/GpL16-k0 (antibody, human IgG1, kappa)
heavy 1: not shown
heavy 2: not shown
light: B1 light
notes: also called He Ab
B12: GpH7-A5/GpH7-B3 variant P331_08L/GpL16-k0 (antibody, human IgG1, kappa)
heavy 1: not shown
heavy 2: not shown
light: B1 light
notes: also called He Ab
B13: GpH7-A5/GpH7-B3 variant P331_09D/GpL16-k0 (antibody, human IgG1, kappa)
heavy 1: not shown
heavy 2: not shown
light: B1 light
notes: also called He Ab
B14: GpH7-A5/GpH7-B3 variant P331_10E/GpL16-k0 (antibody, human IgG1, kappa)
heavy 1: not shown
heavy 2: not shown
light: B1 light
notes: also called He Ab
B15: GpH7-A5/GpH7-B3 variant P331_13S/GpL16-k0 (antibody, human IgG1, kappa)
heavy 1: not shown
heavy 2: not shown
light: B1 light
notes: also called He Ab
B16: GpH7-A5/GpH7-B3 variant P331_14T/GpL16-k0 (antibody, human IgG1, kappa)
heavy 1: not shown
heavy 2: not shown
light: B1 light
notes: also called He Ab
B17: GpH7-A5/GpH7-B3 variant P331_15Y/GpL16-k0 (antibody, human IgG1, kappa)
heavy 1: not shown
heavy 2: not shown
light: B1 light
notes: also called He Ab
B18: GpH7-A5/GpH7-B3 variant P331_16H/GpL16-k0 (antibody, human IgG1, kappa)
heavy 1: not shown
heavy 2: not shown
light: B1 light
notes: also called He Ab
B19: GpH7-A5/GpH7-B3 variant P331_18N/GpL16-k0 (antibody, human IgG1, kappa)
heavy 1: not shown
heavy 2: not shown
light: B1 light
notes: also called He Ab
B20: GpH7-A5/GpH7-B3 variant P331_20W/GpL16-k0 (antibody, human IgG1, kappa)
heavy 1: not shown
heavy 2: not shown
light: B1 light
notes: also called He Ab
B21: GpH7-A5/GpH7-B3 variant Q295_06M/GpL16-k0 (antibody, human IgG1, kappa)
heavy 1: not shown
heavy 2: not shown
light: B1 light
notes: also called He Ab
B22: GpH7-A5/GpH7-B3 variant Q295_10E/GpL16-k0 (antibody, human IgG1, kappa)
heavy 1: not shown
heavy 2: not shown
light: B1 light
notes: also called He Ab
B23: GpH7-A5/GpH7-B3 variant S239_05P/GpL16-k0 (antibody, human IgG1, kappa)
heavy 1: not shown
heavy 2: not shown
light: B1 light
notes: also called He Ab
B24: GpH7-A5/GpH7-B3 variant S239_06M/GpL16-k0 (antibody, human IgG1, kappa)
heavy 1: not shown
heavy 2: not shown
light: B1 light
notes: also called He Ab
B25: GpH7-A5/GpH7-B3 variant S239_07I/GpL16-k0 (antibody, human IgG1, kappa)
heavy 1: not shown
heavy 2: not shown
light: B1 light
notes: also called He Ab
B26: GpH7-A5/GpH7-B3 variant S239_08L/GpL16-k0 (antibody, human IgG1, kappa)
heavy 1: not shown
heavy 2: not shown
light: B1 light
notes: also called He Ab
B27: GpH7-A5/GpH7-B3 variant S239_10E/GpL16-k0 (antibody, human IgG1, kappa)
heavy 1: not shown
heavy 2: not shown
light: B1 light
notes: also called He Ab
B28: GpH7-A5/GpH7-B3 variant S239_14T/GpL16-k0 (antibody, human IgG1, kappa)
heavy 1: not shown
heavy 2: not shown
light: B1 light
notes: also called He Ab

These binders were tested against T1, FcγRIIa R (FcγRIIa, allotype with Arg at position 131), extracellular domain with C-terminal His tag (human, UniProt P12318 34-217) (assay: SPR (Biacore), antibody captured on antigen peptide chip, FcγR as analyte; relative binding).
T1 construct: extracellular domain; also called FcγRIIa R type; 2aR
T1 sequence (looked up): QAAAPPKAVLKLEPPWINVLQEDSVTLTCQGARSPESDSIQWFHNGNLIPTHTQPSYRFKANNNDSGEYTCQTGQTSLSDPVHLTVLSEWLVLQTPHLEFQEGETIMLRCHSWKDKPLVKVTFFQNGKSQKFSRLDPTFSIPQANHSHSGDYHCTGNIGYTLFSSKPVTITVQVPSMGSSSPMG
Description: Analysis of interaction between objective antibody and the FcγR was carried out using Biacore T100 (GE Healthcare). HBS-EP+ (GE Healthcare) was used as the running buffer, and the measurement temperature was set to 25° C. Chips produced by immobilizing the antigen peptide by the amine coupling method to a Series S Sencor Chip CM5 (GE Healthcare), or alternatively, chips produced by allowing preliminarily biotinylated antigen peptides to interact with and immobilize onto a Series S Sensor Chip SA (certified) (GE Healthcare) were used. Antibodies of interest were captured onto an antigen peptide-immobilized chip, and allowed to interact to each FcγR diluted with running buffer. To regenerate and repeatedly use the chip, the antibodies captured on the chip were washed off by reacting 10 mM glycine-HCl, pH 1.5.

Point of comparison: B4, Ho/Con_2aR 89.5 % of GpH7-B3/GpL16-k0 (=100). Against it:
- B1 — higher, 90.2 % of GpH7-B3/GpL16-k0 (=100)
- B2 — lower, 88.1 % of GpH7-B3/GpL16-k0 (=100)
- B3 — higher, 90.3 % of GpH7-B3/GpL16-k0 (=100)
- B5 — higher, 93.7 % of GpH7-B3/GpL16-k0 (=100)
- B6 — lower, 88.9 % of GpH7-B3/GpL16-k0 (=100)
- B7 — higher, 107 % of GpH7-B3/GpL16-k0 (=100)
- B8 — lower, 87.6 % of GpH7-B3/GpL16-k0 (=100)

Point of comparison: B16, He/Con_2aR 104 % of GpH7-A5/GpH7-B3/GpL16-k0 (=100). Against it:
- B9 — higher, 105 % of GpH7-A5/GpH7-B3/GpL16-k0 (=100)
- B10 — higher, 106 % of GpH7-A5/GpH7-B3/GpL16-k0 (=100)
- B11 — higher, 110 % of GpH7-A5/GpH7-B3/GpL16-k0 (=100)
- B12 — lower, 102 % of GpH7-A5/GpH7-B3/GpL16-k0 (=100)
- B13 — lower, 102 % of GpH7-A5/GpH7-B3/GpL16-k0 (=100)
- B14 — higher, 113 % of GpH7-A5/GpH7-B3/GpL16-k0 (=100)
- B15 — higher, 105 % of GpH7-A5/GpH7-B3/GpL16-k0 (=100)
- B17 — higher, 112 % of GpH7-A5/GpH7-B3/GpL16-k0 (=100)
- B18 — higher, 114 % of GpH7-A5/GpH7-B3/GpL16-k0 (=100)
- B19 — higher, 105 % of GpH7-A5/GpH7-B3/GpL16-k0 (=100)
- B20 — higher, 110 % of GpH7-A5/GpH7-B3/GpL16-k0 (=100)
- B21 — lower, 102 % of GpH7-A5/GpH7-B3/GpL16-k0 (=100)
- B22 — lower, 102 % of GpH7-A5/GpH7-B3/GpL16-k0 (=100)
- B23 — higher, 106 % of GpH7-A5/GpH7-B3/GpL16-k0 (=100)
- B24 — lower, 101 % of GpH7-A5/GpH7-B3/GpL16-k0 (=100)
- B25 — lower, 102 % of GpH7-A5/GpH7-B3/GpL16-k0 (=100)
- B26 — higher, 122 % of GpH7-A5/GpH7-B3/GpL16-k0 (=100)
- B27 — higher, 135 % of GpH7-A5/GpH7-B3/GpL16-k0 (=100)
- B28 — lower, 103 % of GpH7-A5/GpH7-B3/GpL16-k0 (=100)
